T1: RexA (Bacteriophage lambda, UniProt P68924 1-279)
T1 sequence: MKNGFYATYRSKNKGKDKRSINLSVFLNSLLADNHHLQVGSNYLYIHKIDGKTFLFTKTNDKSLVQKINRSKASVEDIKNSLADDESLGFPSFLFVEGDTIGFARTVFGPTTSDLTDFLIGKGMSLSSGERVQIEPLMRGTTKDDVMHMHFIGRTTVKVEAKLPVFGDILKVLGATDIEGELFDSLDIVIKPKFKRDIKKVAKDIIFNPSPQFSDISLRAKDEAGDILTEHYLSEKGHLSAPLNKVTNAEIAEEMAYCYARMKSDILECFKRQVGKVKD


Molecular target: T1, RexA
Test: filter binding; 2 mM Mg2+; Filter binding: 25 mM MES pH 6.5, 2.0 mM MgCl2, 0.1 mM DTT, 0.01 mM EDTA, 40 ug/mL BSA, 30 C, 10 min, 14.5 nM unlabeled + 0.5 nM labeled DNA; SEC: Superdex 200
Details: protein: recombinant, tags: C-terminal 6xHis (pET21b), chain copies: 2, 5' overhang 1 nt at both ends

Binder	binding result (label: 5'-32P)	binding result
OR1-OR2 scrambled (dsDNA) DNA 1: AGATCTACCGGTAGAGCTT DNA 2: TAAGCTCTACCGGTAGATC	binds	–
OR1-OR2 (dsDNA, m5C at position 8 of upper strand and position 10 of lower strand) DNA 1: AGATCTACCGGTAGAGCTT DNA 2: TAAGCTCTACCGGTAGATC	–	binds

— publication doi:10.1101/2021.04.19.439022, “Bacteriophage λ RexA and RexB Functions Assist the Transition from Lysogeny to Lytic Growth”
